# Test results from PMC5279944.
# Legend:
# [1] = target: plasma fibronectin purified from Fn1^syn/syn mice (pFN^syn) (mouse)
# [2] = target: plasma fibronectin purified from Fn1^syn/syn mice (pFN^syn) (mouse); remark: listed apart in the source
# [3] = target: plasma fibronectin purified from Fn1^syn/syn mice (pFN^syn) (mouse); remark: listed apart in the source
# [4] = target: plasma fibronectin purified from Fn1^syn/syn mice (pFN^syn) (mouse); experiment: cross-linking; serum-starved Fn1-KO fibroblasts seeded (15, 30 and 60 min) on pFN-coated glass coverslips, spun or not spun; 1 mM DTSSP 15 min at 4°C; cross-linked fraction released with 25 mM DTT, α5 integrin western blot; cross-linked over total integrin
"adhesion of wild-type platelets under shear flow (1000/s, 10 min), pFN^syn compared to pFN^wt (fold reduction) [1]","adhesion strength (τ50, spinning disk) of Fn1-KO cells on pFN^syn compared to pFN^wt [2]",pY397-FAK level in Fn1-KO cells plated on pFN^syn compared to pFN^wt [3],mean spreading area of Itgb3^-/- platelets seeded for 60 min on pFN^syn [1],"α5 integrin crosslinked to FN, percent of that on pFN^wt [4]",Substance
10,,,,,αIIbβ3 integrin on mouse platelets (from UniProt Q9QUM0 32-1033; O54890 26-787) (receptor)
,16 % decrease,54 % decrease,3.8 μm^2,60%,"α5β1 integrin, endogenous on mouse cells (Fn1-KO fibroblasts) (from UniProt P11688 45-1053; P09055 21-798) (receptor)"
